# Experiments:
# [1] = molecular target: BTN3A1 B30.2 domain (BTN3A1 residues 310-513) (Homo sapiens, UniProt O00481); assay: isothermal titration calorimetry; type: binding
# [2] = molecular target: BTN3A1 residues 310-513 (purified, His tag) (human) (UniProt O00481); assay: ITC
# [3] = molecular target: 3A1v2 cytoplasmic tail (protein used in ITC) (human); assay: ITC
Molecule,Kd [1],Kd [2],stoichiometry N [2],Kd [3]
C=C(C)CCO[P@@](=O)(O)OP(=O)(O)O [IPP],672000 nM,,,
"periplakin residues 133-530 (PPL BamH1, purified, His tag) (domain or fragment) DPQVNWAALVEEKLDKLNNQSFGTDLPLVDHQVEEHNIFHNEVKAIGPHLAKDGDKEQNSELRAKYQKLLAASQARQQHLSSLQDYMQRCTNELYWLDQQAKGRMQYDWSDRNLDYPSRRRQYENFINRNLEAKEERINKLHSEGDQLLAAEHPGRNSIEAHMEAVHADWKEYLNLLICEESHLKYMEDYHQFHEDVKDAQELLRKVDSDLNQKYGPDFKDRYQIELLLRELDDQEKVLDKYEDVVQGLQKRGQQVVPLKYRRETPLKPIPVEALCDFEGEQGLISRGYSYTLQKNNGESWELMDSAGNKLIAPAVCFVIPPTDPEALALADSLGSQYRSVRQKAAGSKRTLQQRYEVLKTENPGDASDLQGRQLLAGLDKVASDLDRQEKAITGILR",,2100 nM,1,580 nM
